According to the DeepSol protein solubility set:

assay: soluble on expression in E. coli; label from the status in PepcDB or PDB records

Soluble on expression in E. coli, not soluble:
MGSDKIHHHHHHMRIKAVSSLVGGEVLAEPILTEKNDILIPNGTRIKPDYVPLIESLGIESVMVEDPYENYESPNSIVDPAIFDKYVKKVRRLMESHIYHDGKSLKEFEIIANDIVHDINDMPYDVIVDIKERNSDLYEHTVMVTLLSVLVARKLKLDEKRKYNIAVGCLLHDIGLRFIVTRYKNRDFSNANPAELFEYKKHTILGYSALDEENWIAPISMKMVLSHHENMAGTGFPMKQKNKELECRIIQACDAFDSLISGMECKRICVQEAINQIKENDGGRFDNKIIKCLLSSIARYPVGTTVKTNAEEEGVVVSQTVDPENPIIMIFGNENNGKLMLHNRLNLMLDKNISILQVI
MGSDKIHHHHHHMRIVHISDLHFGEELIREKVEKAVRQINEIEPDLLVITGDLSCWGIHSEMRDAYETLLDLKPDYIAVPGNHDARNIGYEFFQLYFGETKKYWKNDVVSLIAADSTQPDLDDGYIGKEQRDWIVSKIRKDRFNILALHHHIAPIPKTGRERNVLIDAGEMVELLIANGISAVLAGHRHMPYSLRLMRTHVIHAGTLGSFKVLGMPDHNYNVIEIKDNTLTLKLRFVDYGEVEIGRYTINPETPESISVYQRIAKPKKVLFLSRSNDCRTKIAEAIFNHISPNNMLAVSAGIEPAQDLDLRAVATMRELGLKINGKPRKFSEDMVSDFDAIVEFDELGVGEFWDVKKPSSAEEYREVRSEIWRRVEELVKRLLA
MGSDKIHHHHHHMRIVNDVKKILFLAANPQNTVRLRLDKEVEEIRTTLQLSVNRDRFVIESRGAVRPDDLQQYMYNLKPQIVHFSGHGGGEYGLAFEDENGAEQPVSTDALAKFFQLFAGEVNCVVLNACYASVQAEAIAQYIPYVVGMNQAIGDEAARQFAQGFYRAIWDNRSIEDAFASGVNAIALDGIPEDLTPVLLRQADRVTTQTIPSNSVSLESPDGQVRIDSRFYVHSSYEERCYAEVKKPGSLIRIKSPHNMGKSSLMVRVLGYAAQLGYRTVTLNLEQVNQKFFNDLDKYMQWFCASVGKPLGVRIKIEEYWDDIFGANDNSTDYFEKYLLDDTEPPLVVAIDNFDRVFKYPDIETDFCGLLRGWHERSRSNQLWGKLRFVIVYSQEPYLQKDINQSPFNVGLPIELGEFTTAQVQELIRLHGLDWSGQFVKQFMDLIGGHPYLVRSALYHIAAGDLTLEEFLRTAPTEAGIYSDYLLGHLKSLEDYPTLGAAMKTVVTSEFPVRLRSEEAFRVWLCGLRITSSPDANCIVNIFAIA
MGSDKIHHHHHHMRKKPLTIFSDGTLTRRENTLYFESAKGRKPLAIEGIYDIYIYGHVNITSQALHYIAQKGILIHFFNHYGYYDGTFYPRETLLSGDLIIRQAEHYLNKEKRLFLAKSFVTGGTKNMERNLKNWGIKAKLSDYLDELNDARKITEIMNVEARIRQEYYAKWDENLPEEFKIVKRTRRPPKNEMNALISFLNSRLYATIITEIYNTQLAPTISYLHEPSERRFSLSLDLSEIFKPIIADRVANRLVKKGSLKKEHFREDLNGVLLTEEGMKIVTKAYNEELQKSVKHPKIGSNVTRQRLIRLEAYKLIKHLVGVEEYKPLVAWF
MGSDKIHHHHHHMRKLGWKELDIILVTGDAYVDHPSFGVAFIGHYLVSHGFKVGIIAQPDWRTEKDITRLGRPRLFFGVTAGNVDSMVANYTASKKKRKTDDYTPGGIGGKRPDRATIVYTNLIKRFFPEVPVVLGGLEASLRRFAHYDWWSDRVRKSVLVDSKADLLVYGMGEKAVLGIAQILSRTGDIEKCKSIRGVVWWASQKPEEGIELPSYDEISENPEKYAEALKLQTWYTDPYKNIPIYQRQDTRYVVQNPPQPPLSQEELDRLYLLPFEREVHPFYAKMGKVKAIETVKFSITAVRGCFGNCSFCALTQHQTTHVSYRSKDSILEEVRILTKKKDFKGTITDVGGPTANLYGSGCSIRETKGQCQKFCLYPIVCKVVRPNHDEFISLLESIRQIPGVRNVFVSSGIRHDFVFAEKDPDVFIRELVKYTPGQLKLAPEHAHPKVLSLMRKPPVELFLEFKKRFETLAKKMGKRKYVIGYFIVGHPGEGWRENNYLRDFILKHLGYFPQQIQIFTPTPGTVSTAMYYSGVDPFTGEKVHVERSLKVRNKMKENVLFKKKGREKR
MGSDKIHHHHHHMRKLLVIGLDSVPPLLIEKFRDLIPNLQSLLNVKGKLLSGHPPITVPMWGVMLAGRSAGELGVYGFRHRRPGDVGTSYVVTSRSIAEGWVWDDLGLRLGLRSLVIGVPPGYPARRVRGWFVSCFLTPGVDGAFAWPPGLKREILKASGGDYVFDVKYRVEDKESVRKSLWRLAKTQFKVVKYLLSSKPWDFAMYMHIGTDRVHHAFWKYWDPEHPRYPGEGNPYENVLPEYYSLVDKHIGQLLESLPGDTDVIVVSDHGAKAMKGAFAINQWLEEEGYLSLKEEPKRPGADLEASMIDWDRTMAWAWGGYYSRVYINLKGREPRGIVGREEYWSVVEQLKRDIEKIRGPNGERWENKAYHPSELYPEVRGDAPDLMVYLDNLSWRPAGTIGWPSTYLEENDRGPDDAVHDWHGIIGGNADVLKEAVKDSTVPIQRVKEIILAHYGLESHMKDRGRGAV
MGSDKIHHHHHHMRKPRVFIGSSVESLPIADAIAENLEFDAEVTIWRNGTFNLSSNALDDLISKAKSVDFSIFIFSPDDLTIMKSREKYAVRDNVVFELGLFIGAIGKNRCFIVKPRDVDLHFPSDLLGITPTDFDANRSDEDLASSLNYSATQIKRAFKAQGLLELDSVQEKPRIDVNAQLATLTDTDMIALSVLLESVNSDVDGCASWDLYNRFNNYDFSSAQVNLAVIKLTRSGMIEKLNTSDFNGNEYFSYKLTEYGIDVCLSNQNRIETLIAPKKRQSGRDVPQQPPVRS
MGSDKIHHHHHHMRNTDNGVIGSDQTAVMTRLALDELIDQLLHSNALSLKLTANPLVADRAWHLTENTCIRAFSADDPQAKKRAHHALFILYQSWLADPLSPAAANQFHPLLSGIRNYIESEWLRAESKRFHHQRPMLNAGNIVDELRALCQQHPASHHPLFDFLASEASAAQIDYFFKSDSALNLLFFDLVAMGLVGSLPETRAEIAQNLWDEIGQGSTEITHVNLYKDLLKRRNIALPDNHFAHLYEWQGLAGYNAFMLGGVNRQHYYKSLGVMAMTELLDPPQYEKLVAGCRRIGLSERDVHYYAEHITVDIGHADGWLNNVIVPIGKKHPAAMEEVFFGAALRLQTCNDYYDGLLAALQSLGGSLSSHSVPPSE
MGSDKIHHHHHHMRPVDKGKDLGSFKPYNKACAPLQDRLGEYCSYCERWIAAAIEVEHILPKKANPSQKYRWSNFLLACKNCNTGKGSDQIIVTDYLWPDLDNTFLAFCYDDEGRAYPNPRLPPAILEKAKATWTLTNLNWHPDTTFTGMVAPSEKDHRHSHRKQAWIYASDKRNQLLQYDTPDRRVSVAKDALQRGMFSVWMTVFNTTSELDREIRRLLIENFVGTATNCFDRLGNAHRSSTGQI
MGSDKIHHHHHHMRPVYIATAYLGPIQQYCKMLQYPEVRIETAENYVKQTYRNRCVIAAANGPLSLSIPIVKPDTLKCQTKDIRISDHGNWRHLHWNALVSAYNMSPFFEYYADDLAPFYEKKYEFLLDFNEELRRLVCDLLDMQPAVVYTEHYEPEVANDFRETIRPKHEGEDPAFRPEPYYQVFREKFGFLPNLSIADLLFNMGPEGLVTLRASITGSL
MGSDKIHHHHHHMRQPDHDDERAQCFAGFAPESIAHYLEHVWLGTPNPVEEPALADDRTASLAVIPVSELAGRRTELLDAMVTLYGGERETHARALLSQWTKYYFGFTATAGFVAAALLRRPLAMSPDNTHIVLRDGLPIAAYFARDALQPVECDPARRYAPLVEHLNAVIEMLCTMTRIAPRVLWSNAGNLLDYLFEQCAPQFDLSEDIAWLFGPLAANGEANPLRLPVRQAKPRAASLPNPFSARRVCCVRYEIPGETQLCGRCPLLLTMSDAEIALQAASQ
MGSDKIHHHHHHMRRLRKALAAGSFLFRGTFVQSDPIPARARRPIMMLEHIQARTHHARRGALRNSFTYGVDYVLTDLGPAGPLLISRNRFNLWSLWDHRHGGARDNGHGVHWFRSLLQERGLATENAQLLLLTQPSFLWFHFNPVSFWIALVDGTPRAFVAEVNSTFGQRHCYFCARDGFAPIRKSDTLIAEKLMHVSPFQRIAGHYAFNFGMTDTQIDIRISFENGDHGVLATLSGERRPATSASLAWAAIRRPLGAARVLALIHWQAAILYLKRAPFLKKQHPPEHLVSDGYDLRGTKE
MGSDKIHHHHHHMRRPRRPQDFLEYEKVLKFKESEKQIEETETKGDVRVALVVPSGYEVAASGLAFHYVQKLLNSHPRIRCERFFYDETFKKFYSLETQTPIDEFPIWLFSVSFENDFSNLLDILKKKDVPLSWKEREDYHPLIIIGGAVTYLNEEFLIPVADAVYYGELEKYLDLFTEALTGETKQEILSSLSRIPSVEVPSLKEHSEIATGVDLNDFLPHSSVVPSRGVFPGKLLVEVGRGCIRRCAFCIFGKNLKPARFVKPERFEELVKNTPYSEYGLISATITDYPWLEDLLDTVEKYQLKISVSSLRLDRLSERLLRTLKDSGQRSFTIAPEAGSQRIRDILKKDITDEQIENALKLARKLDFDRVKMYFIYGLEEETEEDLEAFKKLGDLAVRLGYREVHMSFNPLIPKPGTEFERRKMEPVDVLRKKEKILKNLLKGFRVDFESIRESVVQYTIAHAGKEEVESWLKFFEKSDKKLLGKLIYEEGRKRLC
MGSDKIHHHHHHMRRTALHSSTVGIRMRRALLRGLALSLTLGGAALGQSVGDSIFPSLGQRGLDVQHYDLHLTVPRPGEPHLSGDVTLTVGAREPLSRIVLDLLGPRVSAAQWNGQRVRWVQTAQKVEVTLPRPLRPGETGRLRLIYAGTPELSGDPGLPIRPGWQNEAGLSYSLSEPHGTRGFLPCNDHPSDPATFTVRVTVPASASAAASGLFTTQTERNGLKTLTFTQRVPVPTYALGLIVGPLERRTAPDVQLGTQTVHRRDIYAAGLPAGTTVPEGETARMLRVLSDWFGPYPDEVYGVALLPVRQLALETAGLTTMPATSNRERVRLHELAHQWFGDQVTLADWADTWLSEGFATYAELLWAESQGEDGQAMAADWYARLSVLPSRPLRATREEEIFDASAYFRGALALHALRLKVGDAAFGQFLHSYVKTFTGRPVSTTALLTLVKTQLGAEAEQTLRVWVEGRTLPPLPEPVGAPV
MGSDKIHHHHHHMRSHGGDVYKVSPNYDRITDMSSNVNPFLDLGKYSLYPEISYTDIEEKLRVYTKSTNMGIVIGPGLTHLIYKYFEFYQVKKPIIAMPNFSEYKGIAEDRHLRFSAIPSYIIEKDPLILKNFDHDALFITSPSNPFGELFPESTLETVFEIEEKRGRRVFLDGAFMDFVPNYAESIVQSSRSYFNVTIGRSLTKILAIPSLRAGYLIMERHEADLFRKAMEPWSICQPAIDFIRSIDINEVAKNSVALVNGEREYLISELKARGIKVIGNPSANYIVISMPRTDEFYNFMLSKGILVRLLDDYDYVGRCLVRLAIKTRSQNNAFLNALDNFMSSSE
MGSDKIHHHHHHMRTVLYDEHAKLNAKFTEFNGWDMPLYYRSIIEEHMAVRKHVGIFDVSHMGDVTVSGKDASAFLDHMFPTKVSNLKNGECVYTAFLNDSGLMIDDTIVYRMGEDSYFFVPNAGTTEKIYRWVSDHSAGYSVKIENVSNRISSIALQGPESEEVLNELGFSYPGYFKFQYVSGKYMNAITGKDQIIISGTGYTGEKGVEFIIPNEHAVELWKKLLEAINKRNGLPAGLGARDTLRMEKGMLLSGHDFNEDRDPYEASVSFIVNNDEDFVGKKNLEIRRRSDHEIFRGFVLSDGIPRNGNPIKAGGKRVGTVTSGTISPVLNKGIALGYIDKAYSKENTEVMIEIRSVDHKAVVTKPRIVK
